Experimental findings from publication PMC9602545, “TcMYB8, a R3-MYB Transcription Factor, Positively Regulates Pyrethrin Biosynthesis in Tanacetum cinerariifolium” are described below.

The target in this data set is TcMYB8 (Tanacetum cinerariifolium (clone W99), UniProt A0A9Y1M041 1-217). The experiment in a line: EMSA; labeled probe 10 uM; EMSA with 10 uM FAM probe; buffer, salt, pH and temperature not stated. Conditions: protein: recombinant; tags: 6xHN, C-terminal (pET6HN-C vector); label: 5' 6-FAM; blunt. For orientation: Mobility shift assays separate free from complexed probe on a gel.
TcMYB8, sequence (A0A9Y1M041 entry or part of it): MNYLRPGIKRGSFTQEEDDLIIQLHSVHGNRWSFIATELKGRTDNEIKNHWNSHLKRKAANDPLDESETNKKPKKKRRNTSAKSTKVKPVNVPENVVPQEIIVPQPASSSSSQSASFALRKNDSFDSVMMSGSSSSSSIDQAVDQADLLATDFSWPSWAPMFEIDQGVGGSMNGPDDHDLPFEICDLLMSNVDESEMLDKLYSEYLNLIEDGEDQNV

B1: Probe_proCHS (dsDNA)
DNA 1: TTTGAAGGCAAGTGATGTAAAGTGCTAAGTGTTAAGTCAATGATTATAT
DNA 2: ATATAATCATTGACTTAACACTTAGCACTTTACATCACTTGCCTTCAAA
As for B1, the binding result is on record as “binds”.

B2: Probe_proGLIP (dsDNA)
DNA 1: CCTGACAGTTGCTATTTAGTGCTGTCTACTTGTTTAGTTGTGGAGCAAATGACT
DNA 2: AGTCATTTGCTCCACAACTAAACAAGTAGACAGCACTAAATAGCAACTGTCAGG
Regarding B2, the binding result is recorded as “binds”.
